This passage reports EC50 results from US20240158537A1 (BRIGHT PEAK THERAPEUTICS, published 2024).

Test [1] has as its target T1, Biotinylated Recombinant Human PD-1 (CD279)-Fc Chimera (carrier-free), Biolegend #789406 (human, UniProt Q15116 25-167, biotinylated (site not stated)).
T1 construct: Bought reagent; also called h-PD1 Fc; Fc part of the bought chimera not given
The test can be described thus: ELISA (OD 450 nm): antibody coated on the plate, biotinylated human PD-1-Fc titrated, streptavidin-HRP detection; x axis 'Molecule (nM)'; EC50 table beside the plot. A general note: In an ELISA, binding on a coated surface is turned into a signal by an enzyme label.

Test [2] addresses T1, Biotinylated Recombinant Human PD-1 …. The test can be described thus: ELISA (OD 450 nm): immunocytokine coated on the plate, biotinylated human PD-1-Fc titrated, streptavidin-HRP detection; x axis 'Molecule (nM)'; EC50 table beside the plot.
Description: Each of these variant conjugates and unmodified antibodies were assayed by ELISA for their ability to bind to human PD-1 according to the following protocol.
Streptavidin-HRP was Sigma #RABHRP3. TMB solution was 3,3′,5,5′-Tetramethylbenzidine (Sigma T0440). Stop solution was Sigma #CL07STOP solution (0.5M H2SO4). Buffers were: Coating buffer was PBS. Wash buffer was PBS-0.02% Tween20. Blocking buffer was PBS-0.02% Tween20 1% BSA. Protein diluent was PBS-0.02% Tween20 0.1% BSA. STOP solution was 0.5M H2SO4. […] The ELISA plates were washed 4 times with 100 μl PBS—0.02% Tween20. and blocked with PBS—1% BSA. A serial dilution of h-PD1 Fc was prepared and plates were incubated for two hours at 37° C., with shaking (600 rpm). ELISA plates were washed and incubated with Streptavidin-HRP 30 min at RT, with shaking (600 rpm). ELISA plates were washed and incubated with ready-to-use TMB solution. Reaction was stopped and plates were read by OD450 on an Enspire plate reader.

T1 sequence (Q15116 25-167, change not shown): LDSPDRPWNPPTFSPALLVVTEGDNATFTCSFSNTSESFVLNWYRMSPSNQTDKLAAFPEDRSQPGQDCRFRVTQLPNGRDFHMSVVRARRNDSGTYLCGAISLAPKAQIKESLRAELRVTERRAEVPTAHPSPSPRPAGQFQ

B1: LZM-009 (unmodified anti-PD-1 antibody, SEQ ID NOs: 76-77) (antibody, V domains shown)
VH: QVQLVQSGAEVKKPGASVKVSCKASGYTFTSYYMYWVRQAPGQGLEWMGGVNPSNGGTNFNEKFKSRVTITADKSTSTAYMELSSLRSEDTAVYYCARRDYRYDMGFDYWGQGTTVTVSS
VL: EIVLTQSPATLSLSPGERATISCRASKGVSTSGYSYLHWYQQKPGQAPRLLIYLASYLESGVPARFSGSGSGTDFTLTISSLEPEDFATYYCQHSRELPLTFGTGTKVEIK
notes: It was tested as a full antibody with an Fc region (K248, Eu numbering); also called parental antibody
B1: in test [1], the EC50 (as a rule, the concentration at which the effect is half-maximal) stood at 0.035 nM.

B2: Composition C (LZM-009-IL-7 conjugate, DAR 1) (other)
VH: B1 VH
VL: B1 VL
chain: DCDIEGKDGKQYESVLXVSIDQLLDSXKEIGSNCLXNEFNFFKRHICDANKEGXFLFRAARKLRQFLKXNSTGDFXLHLLKVSEGTTILLNCTGQVKGRKPAALGEAQPTKSLXENKSLKEQKKLNDLCFLKRLLQEIKTCWNKILXGTKEH
modifications: not fully specified; Nle at 17, 27, 54, 69, 147; Hse at 36, 76, 114; N-terminal amine carries the glutaryl-PEG-azide handle of Composition AA, joined by a chemical linker to K248 of the antibody heavy chain; K248 (Eu numbering) of the Fc region, whose sequence is not given, carries a DBCO linker reacted with the azide of Composition AA (triazole); drug-antibody ratio 1
notes: Chemical conjugate; also called immunocytokine Composition C
B2: the EC50 in test [2] worked out at 0.0348 nM.
